Laboratory results as given in patent US20200132689.

Molecular target: panel of anti-NAMPT murine monoclonal antibodies (mAbs)

B1: nicotinamide phosphoribosyltransferase (NAMPT) (protein)
chain: MNPAAEAEFNILLATDSYKVTHYKQYPPNTSKVYSYFECREKKTENSKLRKVKYEETVFYGLQYILNKYLKGKVVTKEKIQEAKDVYKEHFQDDVFNEKGWNYILEKYDGHLPIEIKAVPEGFVIPRGNVLFTVENTDPECYWLTNWIETILVQSWYPITVATNSREQKKILAKYLLETSGNLDGLEYKLHDFGYRGVSSQETAGIGASAHLVNFKGTDTVAGLALIKKYYGTKDPVPGYSVPAAEHSTITAWGKDHEKDAFEHIVTQFSSVPVSVVSDSYDIYNACEKIWGEDLRHLIVSRSTQAPLIIRPDSGNPLDTVLKVLEILGKKFPVTENSKGYKLLPPYLRVIQGDGVDINTLQEIVEGMKQKMWSIENIAFGSGGGLLQKLTRDLLNCSFKCSYVVTNGLGINVFKDPVADPNKRSKKGRLSLHRTPAGNFVTLEEGKGDLEEYGQDLLHTVFKNGKVTKSYSFDEIRKNAQLNIELEAAHH
NAMPT-induced NFκB phosphorylation: highly efficacious in significantly reducing NAMPT-induced NFκB phosphorylation
